# Experiments:
# IMP-11 [1] = tested on: T1, IMP-11; assay: spectrophotometric initial hydrolysis rates, […] nm, Michaelis-Menten; type: biochemical; conditions: 50 mM sodium phosphate pH 7.0, 50 μM ZnCl2, 24 ± 1 °C
# T1 construct: gene blaIMP-11; signal peptide (first 19 aa) removed; His tag cut off with PreScission protease; expressed in E. coli Rosetta II
# IMP-11 [2] = tested on: T1, IMP-11; assay: as above; type: biochemical; conditions: 50 mM sodium phosphate pH 7.0, 50 μM ZnCl2, 24 ± 1 °C; remark: listed apart in the source
# IMP-11 [3] = tested on: T1, IMP-11; assay: as above; type: biochemical; conditions: 50 mM sodium phosphate pH 7.0, 50 μM ZnCl2, 24 ± 1 °C; remark: listed apart in the source
# [4] = tested on: CC(C)(O/N=C(\C(=O)N[C@@H]1C(=O)N2C(C(=O)[O-])=C(C[n+]3ccccc3)CS[C@H]12)c1csc(N)n1)C(=O)O; assay: purified protein; type: biochemical, Klebsiella pneumoniae; conditions: 50 mM sodium phosphate pH 7.0, 50 μM ZnCl2, 24 ± 1 °C, 24.0 °C
# [5] = tested on: C[C@@H](O)[C@H]1C(=O)N2C(C(=O)O)=C(SCCN=CN)C[C@H]12; assay: purified protein; type: biochemical, Klebsiella pneumoniae; conditions: 50 mM sodium phosphate pH 7.0, 50 μM ZnCl2, 24 ± 1 °C, 24.0 °C
# [6] = tested on: C[C@@H](O)[C@H]1C(=O)N2C(C(=O)O)=C(S[C@@H]3CN[C@H](C(=O)N(C)C)C3)[C@H](C)[C@H]12; assay: purified protein; type: biochemical, Klebsiella pneumoniae; conditions: 50 mM sodium phosphate pH 7.0, 50 μM ZnCl2, 24 ± 1 °C, 24.0 °C
# [7] = tested on: CC1(C)S[C@@H]2[C@H](NC(=O)[C@H](N)c3ccccc3)C(=O)N2[C@H]1C(=O)O; assay: purified protein; type: biochemical, Klebsiella pneumoniae; conditions: 50 mM sodium phosphate pH 7.0, 50 μM ZnCl2, 24 ± 1 °C, 24.0 °C
# [8] = tested on: CO/N=C(\C(=O)N[C@@H]1C(=O)N2C(C(=O)O)=C(COC(C)=O)CS[C@H]12)c1csc(N)n1; assay: purified protein; type: biochemical, Klebsiella pneumoniae; conditions: 50 mM sodium phosphate pH 7.0, 50 μM ZnCl2, 24 ± 1 °C, 24.0 °C
compound,measurement,setting,value
C[C@@H](O)[C@H]1C(=O)N2C(C(=O)O)=C(SCCN=CN)C[C@H]12 [Imipenem],Km,IMP-11 [1],41 ± 18.4 µM
CO/N=C(\C(=O)N[C@@H]1C(=O)N2C(C(=O)O)=C(COC(C)=O)CS[C@H]12)c1csc(N)n1 [Cefotaxime],Km,IMP-11 [2],11.8 ± 2.2 µM
C[C@@H](O)[C@H]1C(=O)N2C(C(=O)O)=C(S[C@@H]3CN[C@H](C(=O)N(C)C)C3)[C@H](C)[C@H]12 [Meropenem],Km,IMP-11 [1],14.8 ± 2.8 µM
CC1(C)S[C@@H]2[C@H](NC(=O)[C@H](N)c3ccccc3)C(=O)N2[C@H]1C(=O)O [Ampicillin],Km,IMP-11 [3],830 ± 248 µM
CC(C)(O/N=C(\C(=O)N[C@@H]1C(=O)N2C(C(=O)[O-])=C(C[n+]3ccccc3)CS[C@H]12)c1csc(N)n1)C(=O)O [Ceftazidime],Km,IMP-11 [2],232 ± 18.9 µM
IMP-68 (Klebsiella pneumoniae),Km,[4],326 ± 131 µM
same,kcat,[4],3.9 ± 2.1 s⁻¹
same,kcat/Km,[4],12000 M⁻¹ s⁻¹
same,Km,[5],347 ± 52.2 µM
same,kcat,[5],36.7 ± 7.8 s⁻¹
same,kcat/Km,[5],110000 M⁻¹ s⁻¹
same,Km,[6],10.1 ± 0.94 µM
same,kcat,[6],9.7 ± 1.7 s⁻¹
same,kcat/Km,[6],890000 M⁻¹ s⁻¹
same,Km,[7],465 ± 200 µM
same,kcat,[7],1.7 ± 0.44 s⁻¹
same,kcat/Km,[7],3700 M⁻¹ s⁻¹
same,Km,[8],10.3 ± 2.3 µM
same,kcat,[8],25.7 ± 1.3 s⁻¹
same,kcat/Km,[8],2.5e+06 M⁻¹ s⁻¹
